# Measurements taken from IntAct's records for PubMed 35512704.
# B1: Speckle-type POZ protein (Homo sapiens), O43791 (parent)
# chain: MSRVPSPPPPAEMSSGPVAESWCYTQIKVVKFSYMWTINNFSFCREEMGEVIKSSTFSSGANDKLKWCLRVNPKGLDEESKDYLSLYLLLVSCPKSEVRAKFKFSILNAKGEETKAMESQRAYRFVQGKDWGFKKFIRRDFLLDEANGLLPDDKLTLFCEVSVVQDSVNISGQNTMNMVKVPECRLADELGGLWENSRFTDCCLCVAGQEFQAHKAILAARSPVFSAMFEHEMEESKKNRVEINDVEPEVFKEMMCFIYTGKAPNLDKMADDLLAAADKYALERLKVMCEDALCSNLSVENAAEILILADLHSADQLKTQAVDFINYHASDVLETSGWKSMVVSHPHLVAEAYRSLASAQCPFLGPPRKRLKQS
# partner: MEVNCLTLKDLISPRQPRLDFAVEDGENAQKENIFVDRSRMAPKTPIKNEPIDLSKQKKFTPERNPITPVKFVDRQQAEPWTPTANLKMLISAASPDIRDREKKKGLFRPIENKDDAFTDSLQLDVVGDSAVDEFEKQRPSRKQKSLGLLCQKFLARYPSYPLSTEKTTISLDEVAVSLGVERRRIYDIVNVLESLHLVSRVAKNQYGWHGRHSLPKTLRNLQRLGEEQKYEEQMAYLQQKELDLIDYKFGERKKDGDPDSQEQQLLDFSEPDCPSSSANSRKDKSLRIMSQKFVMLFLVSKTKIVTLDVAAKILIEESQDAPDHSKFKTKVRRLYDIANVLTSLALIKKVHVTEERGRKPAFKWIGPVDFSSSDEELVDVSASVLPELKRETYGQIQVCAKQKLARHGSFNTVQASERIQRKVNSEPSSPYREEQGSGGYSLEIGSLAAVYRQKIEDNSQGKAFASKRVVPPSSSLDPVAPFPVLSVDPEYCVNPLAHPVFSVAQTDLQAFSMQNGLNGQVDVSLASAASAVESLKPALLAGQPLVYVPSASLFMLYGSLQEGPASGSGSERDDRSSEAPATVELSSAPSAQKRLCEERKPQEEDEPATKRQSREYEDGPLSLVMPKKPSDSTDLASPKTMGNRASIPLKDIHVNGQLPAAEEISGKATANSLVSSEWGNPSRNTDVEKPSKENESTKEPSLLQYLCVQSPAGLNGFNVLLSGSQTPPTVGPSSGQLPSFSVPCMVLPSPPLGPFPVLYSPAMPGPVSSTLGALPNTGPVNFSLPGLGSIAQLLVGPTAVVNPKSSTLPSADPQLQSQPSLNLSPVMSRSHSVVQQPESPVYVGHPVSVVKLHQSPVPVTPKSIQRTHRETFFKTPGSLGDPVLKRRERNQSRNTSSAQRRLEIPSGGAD
# B2: Speckle-type POZ protein (Homo sapiens), O43791 (parent)
# chain: B1 chain
# partner: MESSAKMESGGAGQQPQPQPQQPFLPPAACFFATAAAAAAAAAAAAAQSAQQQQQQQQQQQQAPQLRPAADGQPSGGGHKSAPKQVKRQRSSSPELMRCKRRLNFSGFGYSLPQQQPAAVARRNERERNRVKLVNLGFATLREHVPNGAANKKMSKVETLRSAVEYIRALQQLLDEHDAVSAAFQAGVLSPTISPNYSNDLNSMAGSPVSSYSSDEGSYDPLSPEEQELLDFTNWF
# B3: Mothers against decapentaplegic homolog 4 (Homo sapiens), Q13485 (parent)
# chain: MDNMSITNTPTSNDACLSIVHSLMCHRQGGESETFAKRAIESLVKKLKEKKDELDSLITAITTNGAHPSKCVTIQRTLDGRLQVAGRKGFPHVIYARLWRWPDLHKNELKHVKYCQYAFDLKCDSVCVNPYHYERVVSPGIDLSGLTLQSNAPSSMMVKDEYVHDFEGQPSLSTEGHSIQTIQHPPSNRASTETYSTPALLAPSESNATSTANFPNIPVASTSQPASILGGSHSEGLLQIASGPQPGQQQNGFTGQPATYHHNSTTTWTGSRTAPYTPNLPHHQNGHLQHHPPMPPHPGHYWPVHNELAFQPPISNHPAPEYWCSIAYFEMDVQVGETFKVPSSCPIVTVDGYVDPSGGDRFCLGQLSNVHRTEAIERARLHIGKGVQLECKGEGDVWVRCLSDHAVFVQSYYLDREAGRAPGDAVHKIYPSAYIKVFDLRQCHRQMQQQAATAQAAAAAQAAAVAGNIPGPGSVGGIAPAISLSAAAGIGVDDLRRLCILRMSFVKGWGPDYPRQSIKETPCWIEIHLHRALQLLDEVLHTMPIADPQPLD
# partner: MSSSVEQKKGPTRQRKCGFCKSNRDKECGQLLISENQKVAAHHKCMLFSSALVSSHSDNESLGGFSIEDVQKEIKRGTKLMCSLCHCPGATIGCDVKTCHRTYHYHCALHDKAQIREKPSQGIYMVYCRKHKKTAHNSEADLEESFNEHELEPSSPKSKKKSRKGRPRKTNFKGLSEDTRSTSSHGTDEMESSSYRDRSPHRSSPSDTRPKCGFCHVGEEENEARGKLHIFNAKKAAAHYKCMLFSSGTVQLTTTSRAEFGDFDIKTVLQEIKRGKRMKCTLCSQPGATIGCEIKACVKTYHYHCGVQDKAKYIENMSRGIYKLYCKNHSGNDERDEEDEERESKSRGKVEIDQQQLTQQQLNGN
# B4: Mothers against decapentaplegic homolog 4 (Homo sapiens), Q13485 (parent)
# chain: B3 chain
# partner: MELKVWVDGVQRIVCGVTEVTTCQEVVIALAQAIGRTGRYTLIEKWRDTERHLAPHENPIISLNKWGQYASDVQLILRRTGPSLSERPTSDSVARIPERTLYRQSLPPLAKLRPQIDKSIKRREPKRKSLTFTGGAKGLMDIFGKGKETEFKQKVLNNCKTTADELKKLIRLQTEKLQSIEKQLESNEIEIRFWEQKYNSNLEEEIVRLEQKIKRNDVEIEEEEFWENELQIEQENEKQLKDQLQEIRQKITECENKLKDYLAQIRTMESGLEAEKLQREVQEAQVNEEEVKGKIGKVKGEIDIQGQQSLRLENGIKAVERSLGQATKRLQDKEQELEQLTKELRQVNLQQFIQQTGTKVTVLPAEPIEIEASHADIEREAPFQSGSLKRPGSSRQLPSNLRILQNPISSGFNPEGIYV
# B5: Mothers against decapentaplegic homolog 4 (Homo sapiens), Q13485 (parent)
# chain: B3 chain
# partner: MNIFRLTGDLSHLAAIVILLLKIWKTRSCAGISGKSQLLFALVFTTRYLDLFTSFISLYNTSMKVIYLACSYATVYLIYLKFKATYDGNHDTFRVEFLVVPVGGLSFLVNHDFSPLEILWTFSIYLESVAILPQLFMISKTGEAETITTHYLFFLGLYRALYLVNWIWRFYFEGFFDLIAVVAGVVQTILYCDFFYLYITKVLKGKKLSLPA
# Variants of: B1
# Conditions: with e2f7_human E2F7, Q96AV8
row,effect of a mutation on the interaction,Variant
1,with no effect,F133L

# Variants of: B1
# Conditions: with e2f7_human E2F7, Q96AV8
# Remark: another data set of the same source
row,effect of a mutation on the interaction,Variant
1,with no effect,F102C

# Variants of: B2
# Conditions: with ascl1_human ASCL1, P50553
row,effect of a mutation on the interaction,Variant
1,with no effect,F102C

# Variants of: B2
# Conditions: with ascl1_human ASCL1, P50553
# Remark: another data set of the same source
row,effect of a mutation on the interaction,Variant
1,with no effect,F133V

# Variants of: B2
# Conditions: with ascl1_human ASCL1, P50553
# Remark: another data set of the same source
row,effect of a mutation on the interaction,Variant
1,with no effect,F133L

# Variants of: B2
# Conditions: with ascl1_human ASCL1, P50553
# Remark: another data set of the same source
row,effect of a mutation on the interaction,Variant
1,with no effect,Y87C

# Variants of: B3
# Conditions: with phf6_human PHF6, Q8IWS0
row,effect of a mutation on the interaction,Variant
1,with no effect,R361C

# Variants of: B4
# Conditions: with rasf8_human RASSF8, Q8NHQ8
row,effect of a mutation on the interaction,Variant
1,with no effect,R361H

# Variants of: B4
# Conditions: with rasf8_human RASSF8, Q8NHQ8
# Remark: another data set of the same source
row,effect of a mutation on the interaction,Variant
1,with no effect,R361C

# Variants of: B4
# Conditions: with rasf8_human RASSF8, Q8NHQ8
# Remark: another data set of the same source
row,effect of a mutation on the interaction,Variant
1,with no effect,G386D

# Variants of: B4
# Conditions: with rasf8_human RASSF8, Q8NHQ8
# Remark: another data set of the same source
row,effect of a mutation on the interaction,Variant
1,increasing interaction strength,G386D

# Variants of: B5
# Conditions: with erd22_human KDELR2, P33947
row,effect of a mutation on the interaction,Variant
1,with no effect,R361H
